In test [1] the target is T1, methionyl-tRNA synthetase (Mes1) (S. cerevisiae, UniProt P00958 2-751, limits assumed).
T1 construct: Component of the purified AME complex; also called YGR264C
T1 sequence: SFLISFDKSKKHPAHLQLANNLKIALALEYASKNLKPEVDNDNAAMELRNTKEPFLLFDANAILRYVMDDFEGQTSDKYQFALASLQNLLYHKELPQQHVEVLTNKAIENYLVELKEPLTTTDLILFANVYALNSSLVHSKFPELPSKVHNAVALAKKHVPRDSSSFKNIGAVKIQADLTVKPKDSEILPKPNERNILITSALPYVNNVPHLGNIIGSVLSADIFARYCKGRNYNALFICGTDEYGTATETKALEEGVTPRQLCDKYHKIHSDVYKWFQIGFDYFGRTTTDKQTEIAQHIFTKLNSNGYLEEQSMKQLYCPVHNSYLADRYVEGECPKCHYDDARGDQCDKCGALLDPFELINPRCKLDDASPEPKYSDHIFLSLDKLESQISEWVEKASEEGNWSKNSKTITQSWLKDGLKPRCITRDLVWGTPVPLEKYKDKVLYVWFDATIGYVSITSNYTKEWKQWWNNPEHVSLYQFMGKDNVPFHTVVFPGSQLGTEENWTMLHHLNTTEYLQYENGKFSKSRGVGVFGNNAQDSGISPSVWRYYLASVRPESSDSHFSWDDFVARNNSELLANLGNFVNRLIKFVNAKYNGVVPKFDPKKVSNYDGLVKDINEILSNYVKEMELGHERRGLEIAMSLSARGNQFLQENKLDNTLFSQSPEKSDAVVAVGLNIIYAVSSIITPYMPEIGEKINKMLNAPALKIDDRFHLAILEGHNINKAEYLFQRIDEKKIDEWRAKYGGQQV
The experiment in a line: co-elution on Superdex200 gel filtration, western blot of fractions (AME complex of Arc1, Mes1 and Gus1).
Text: (§1) Shown on the left panel is the elution profile from Superdex200 gel filtration column.

Test [2] concerns the target T2, glutamyl-tRNA synthetase (Gus1) (S. cerevisiae, UniProt P46655 1-708).
T2 construct: Component of the purified AME complex; also called YGL245W
T2 sequence: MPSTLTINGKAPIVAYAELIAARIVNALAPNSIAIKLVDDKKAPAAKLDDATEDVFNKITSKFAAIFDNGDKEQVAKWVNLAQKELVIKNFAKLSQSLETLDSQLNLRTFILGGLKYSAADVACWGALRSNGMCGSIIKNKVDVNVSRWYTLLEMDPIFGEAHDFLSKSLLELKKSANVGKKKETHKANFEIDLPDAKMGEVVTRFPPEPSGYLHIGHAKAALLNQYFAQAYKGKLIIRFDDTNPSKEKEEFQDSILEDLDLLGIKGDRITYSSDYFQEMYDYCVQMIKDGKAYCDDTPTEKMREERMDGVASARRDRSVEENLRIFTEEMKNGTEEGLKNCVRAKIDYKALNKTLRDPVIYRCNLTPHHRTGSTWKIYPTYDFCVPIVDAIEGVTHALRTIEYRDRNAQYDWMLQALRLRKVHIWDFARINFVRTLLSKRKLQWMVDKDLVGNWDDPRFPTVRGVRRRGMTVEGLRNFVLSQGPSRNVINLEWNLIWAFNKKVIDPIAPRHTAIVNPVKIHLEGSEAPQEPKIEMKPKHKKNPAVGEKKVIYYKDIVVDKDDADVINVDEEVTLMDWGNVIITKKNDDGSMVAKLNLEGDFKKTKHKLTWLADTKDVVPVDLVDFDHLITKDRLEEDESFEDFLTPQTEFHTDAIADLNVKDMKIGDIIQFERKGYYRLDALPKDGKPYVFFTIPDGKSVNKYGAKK
The test is described as above.
Text: as §1

The text below walks through data of patent US20180305699A1 (UNIVERSITY OF CHICAGO, published 2018).

B1: aminoacylation cofactor (Arc1) (other)
chain: MSDLVTKFESLIISKYPVSFTKEQSAQAAQWESVLKSGQIQPHLDQLNLVLRDNTFIVSTLYPTSTDVHVFEVALPLIKDLVASSKDVKSTYTTYRHILRWIDYMQNLLEVSSTDKLEINHDLDLPHEVIEKKKKAPAGGAADAAAKADEDVSKKAKKQDHPRGKPDEETLKKLREEAKAKKAAKKAANAKQQQEQQNKAPEKPKPSAIDFRVGFIQKAIKHPDADSLYVSTIDVGDEEGPRTVCSGLVKHFPLDAMQERYVVVVCNLKPVNMRGIKSTAMVLCGSNDDKVEFVEPPKDSKAGDKVFFEGFGDEAPMKQLNPKKKIWEHLQPHFTTNDGLEVIFKDEEEKDHPVRKLTNAKGESFKVASIANAQVR
notes: Component of the purified AME complex; also called YGL105W
With B1, the binding result in test [1] and in test [2] was “binds” in each case.
